From the supplement of paper PMC10126150
± gives the standard deviation of the averaged measurements.

Tested on: ATP
Assay: switch fluorescence ratio, 500 uM ATP over buffer (Cy3 cluster intensity, sum of 5 cycles each) (fold (ratio)); higher = stronger signal-on switching upon ATP binding; sequences stand for … in TCGTCGGCAGCGTCAGATGTGTATAAGAGACAGTTTTTTTTTTTTTTTTTTTTTTTTT…TC
Conditions: aptamer strand: ATP DNA aptamer (quencher-CACCTGGGGGAGTATTGCGGAGGAAGG + anchor), 100 nM annealed; ATP concentration: 500 uM
Outline: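 Values give the fluorescence ratio for each switch-domain sequence, averaged from per-cluster ratios of summed target-cycle to summed buffer-cycle Cy3 intensity. The Cy3-labelled switching-strand clusters sat on a modified Illumina MiSeq flow-cell, were annealed to 100 nM quencher-labelled ATP aptamer, and were imaged in selection buffer, then after 15 min with 500 uM ATP at 22 °C. Five cycles ran with NaOH stripping and re-annealing between them, and clusters outside 100-1000 RFU were excluded.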
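Further: ATP exposure 15 min at 22 °C before imaging.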

Sequence | switch fluorescence ratio
ATTCGAAGGT | 1.004 ± 0.0044
ATTCGAGAAG | 0.997 ± 0.018
ATTCGAGTGT | 0.984 ± 0.018
ATTCGCTTCT | 1.02 ± 0.013
ATTCGGCGGA | 1.03 ± 0.068
ATTCGGGGG | 0.927 ± 0.064
ATTCGGGTTT | 1.05 ± 0.066
ATTCGTAGTG | 1.004 ± 0.0016
ATTCGTCATA | 1.04 ± 0.075
ATTCGTTACT | 1.03 ± 0.051
ATTCGTTTCT | 0.97 ± 0.013
ATTCGTTTTC | 1.02 ± 0.024
ATTCTATCGT | 1.01 ± 0.015
ATTCTCATTG | 0.982 ± 0.038
ATTCTGGTGC | 1.12 ± 0.025
ATTCTTATTT | 0.998 ± 0.028
ATTCTTTGG | 0.9676 ± 0.0024
ATTGAAAGAG | 1.21 ± 0.28
ATTGAAAGGC | 1.29 ± 0.42
ATTGAAATTT | 1.05 ± 0.093
ATTGAACGGG | 1.02 ± 0.016
ATTGACTTTT | 1 ± 0.025
ATTGAGATGC | 0.938 ± 0.014
ATTGAGCCAG | 1.03 ± 0.023
ATTGAGGAGG | 1.02 ± 0.023

Sequence | switch fluorescence ratio
ATTGATACTA | 1.03 ± 0.021
ATTGATATCC | 0.987 ± 0.043
ATTGATGTTT | 1.01 ± 0.024
ATTGATTGCG | 0.989 ± 0.013
ATTGCAATGT | 1.036 ± 0.0055
ATTGCCCGTC | 0.992 ± 0.038
ATTGCGGTTT | 0.991 ± 0.032
ATTGCTCTTT | 1.0037 ± 0.00058
ATTGCTTTTT | 0.9834 ± 0.0066
ATTGGAACGC | 1.03 ± 0.012
ATTGGACTAC | 1.07 ± 0.03
ATTGGAGTTA | 0.999 ± 0.012
ATTGGATTCA | 1.022 ± 0.0023
ATTGGCAGTG | 1 ± 0.021
ATTGGCATCT | 0.9925 ± 0.0079
ATTGGCCATC | 0.997 ± 0.0048
ATTGGCCCAT | 0.9642 ± 0.0017
ATTGGCCGCC | 0.991 ± 0.042
ATTGGGAATA | 0.986 ± 0.029
ATTGGGAGTA | 0.988 ± 0.0099
ATTGGGATCC | 1.02 ± 0.029
ATTGGGCAAT | 1.054 ± 0.0023
ATTGGGCTGT | 0.993 ± 0.016
ATTGGGTGTG | 0.987 ± 0.027
ATTGGGTTGG | 0.998 ± 0.019

Sequence | switch fluorescence ratio
ATTGGTGCGT | 1.0357 ± 0.0007
ATTGGTGGGG | 0.982 ± 0.033
ATTGTAAAGC | 0.9935 ± 0.0083
ATTGTAGGAG | 0.9966 ± 0.0058
ATTGTCGACT | 0.9681 ± 0.0045
ATTGTCGGCT | 1.05 ± 0.18
ATTGTGAAAT | 0.999 ± 0.0025
ATTGTGCAGG | 0.998 ± 0.0025
ATTGTGCCTG | 1.083 ± 0.0093
ATTGTGCGGC | 1.01 ± 0.027
ATTGTGGGGA | 0.985 ± 0.048
ATTGTGTTCC | 1.05 ± 0.0057
ATTGTTAATG | 0.98 ± 0.046
ATTGTTATCT | 1 ± 0.013
ATTGTTCCGT | 1.02 ± 0.021
ATTGTTGGTG | 0.986 ± 0.024
ATTGTTGGTT | 0.974 ± 0.019
ATTGTTGTGT | 0.9992 ± 0.0099
ATTGTTTCAG | 0.976 ± 0.02
ATTGTTTGCG | 0.966 ± 0.035
ATTGTTTGTC | 0.996 ± 0.064
ATTTAAATTG | 1.02 ± 0.052
ATTTAAGAAT | 1.022 ± 0.0061
ATTTAAGGAC | 1.04 ± 0.032
ATTTAATAAT | 0.985 ± 0.018

Sequence | switch fluorescence ratio
ATTTACACGC | 1.02 ± 0.02
ATTTACCAGG | 1.18 ± 0.26
ATTTACTAGA | 1.004 ± 0.0042
ATTTACTTCT | 1.04 ± 0.015
ATTTAGACTT | 1.039 ± 0.01
ATTTAGAGGT | 0.965 ± 0.043
ATTTAGCCTA | 0.9758 ± 0.0079
ATTTAGGTCA | 0.983 ± 0.011
ATTTAGTACA | 0.973 ± 0.011
ATTTAGTCGA | 0.9519 ± 0.001
ATTTAGTTGT | 1.03 ± 0.03
ATTTATACGC | 1.06 ± 0.038
ATTTATACGG | 1.02 ± 0.015
ATTTATATTG | 0.989 ± 0.05
ATTTATGATA | 0.99 ± 0.008
ATTTATGGTG | 0.973 ± 0.031
ATTTATGTGG | 0.998 ± 0.02
ATTTATGTTC | 0.994 ± 0.033
ATTTATTTTA | 1.01 ± 0.012
ATTTCAATTA | 1.01 ± 0.065
ATTTCACAAT | 0.9798 ± 0.0028
ATTTCAGTCT | 0.977 ± 0.051
ATTTCATGG | 0.97 ± 0.057
ATTTCCCGAT | 0.979 ± 0.012
ATTTCTAGGA | 0.987 ± 0.015

Sequence | switch fluorescence ratio
ATTTCTATCC | 1.09 ± 0.12
ATTTCTGGGT | 0.9885 ± 0.0082
ATTTCTTGG | 0.958 ± 0.031
ATTTGAAGTT | 0.975 ± 0.043
ATTTGACGGG | 1.03 ± 0.047
ATTTGACTTT | 1.04 ± 0.031
ATTTGAGTGC | 0.966 ± 0.002
ATTTGAGTTA | 1 ± 0.056
ATTTGCGGGC | 1.07 ± 0.11
ATTTGGATGG | 0.985 ± 0.023
ATTTGGCTGG | 0.986 ± 0.015
ATTTGGGCCA | 1.02 ± 0.022
ATTTGGGGTC | 0.9644 ± 0.0056
ATTTGGGGTT | 0.997 ± 0.031
ATTTGGTAGG | 1 ± 0.012
ATTTGGTGAG | 0.983 ± 0.03
ATTTGGTGCG | 1.01 ± 0.036
ATTTGGTGTA | 0.968 ± 0.0098
ATTTGTAAGC | 0.9909 ± 0.0068
ATTTGTATGC | 1 ± 0.051
ATTTGTGGAC | 0.973 ± 0.037
ATTTGTGGGG | 1.01 ± 0.065
ATTTGTGGTG | 1.01 ± 0.023
ATTTGTGTA | 0.992 ± 0.012
ATTTGTGTGT | 0.967 ± 0.036

Sequence | switch fluorescence ratio
ATTTGTGTTT | 0.9931 ± 0.0027
ATTTTAATAT | 0.987 ± 0.03
ATTTTACACC | 1.07 ± 0.013
ATTTTACGTA | 1.143 ± 0.0025
ATTTTACGTG | 1 ± 0.016
ATTTTACTAA | 1.05 ± 0.021
ATTTTAGGCA | 0.996 ± 0.039
ATTTTAGGCC | 1.1 ± 0.06
ATTTTAGTTA | 1 ± 0.038
ATTTTATCAG | 1.02 ± 0.018
ATTTTATTAC | 1.04 ± 0.028
ATTTTCACAG | 1.03 ± 0.077
ATTTTCAGAT | 1.003 ± 0.0045
ATTTTCAGGG | 0.998 ± 0.067
ATTTTCGGTG | 1.01 ± 0.024
ATTTTGTAAT | 1 ± 0.019
ATTTTGTGAG | 0.969 ± 0.031
ATTTTGTGTA | 1.005 ± 0.004
ATTTTGTGTG | 0.989 ± 0.011
ATTTTGTTCT | 0.993 ± 0.031
ATTTTGTTGG | 1.11 ± 0.2
ATTTTTAGT | 1 ± 0.016
ATTTTTATTC | 0.991 ± 0.03
ATTTTTCCCG | 1.07 ± 0.059
ATTTTTCGAT | 1 ± 0.026

Sequence | switch fluorescence ratio
ATTTTTCTCG | 0.96 ± 0.041
ATTTTTGGG | 1.03 ± 0.035
ATTTTTGGTG | 1.06 ± 0.064
ATTTTTTGGG | 0.9597 ± 0.0069
ATTTTTTTCT | 1.04 ± 0.04
ATTTTTTTGT | 1 ± 0.026
CAAAAAAAAG | 1.03 ± 0.023
CAAAAAATTA | 1.01 ± 0.031
CAAAAAGCGT | 0.9786 ± 0.0056
CAAAAAGTTG | 1.02 ± 0.093
CAAAAATTGG | 1 ± 0.041
CAAAAGAGTG | 0.999 ± 0.018
CAAAAGCCTA | 0.974 ± 0.053
CAAAAGGGGA | 0.984 ± 0.04
CAAAAGTTGT | 0.992 ± 0.043
CAAAATATAT | 1.06 ± 0.042
CAAAATTGCA | 1.02 ± 0.016
CAAAATTTGC | 0.9841 ± 0.0061
CAAACGGGGG | 0.983 ± 0.042
CAAACGGGGT | 1.01 ± 0.024
CAAACTGGCA | 1.05 ± 0.045
CAAAGACACA | 0.985 ± 0.012
CAAAGGCGGA | 0.991 ± 0.014
CAAAGGGGCA | 1.046 ± 0.0052
CAAAGGGGGA | 1 ± 0.033

Sequence | switch fluorescence ratio
CAAAGGGGGG | 1.13 ± 0.38
CAAAGTAGGG | 0.991 ± 0.032
CAAAGTGGTG | 0.97 ± 0.053
CAAATAAATT | 0.989 ± 0.029
CAAATCGTTG | 0.9786 ± 0.0024
CAAATGAAAG | 1.004 ± 0.0058
CAAATGATTT | 0.985 ± 0.021
CAAATGTCAA | 0.987 ± 0.015
CAAATGTTTG | 0.998 ± 0.02
CAAATTAGGG | 0.971 ± 0.036
CAAATTGCAG | 0.967 ± 0.026
CAACACGGCA | 1.11 ± 0.026
CAACCGCGTA | 2.36 ± 0.1
CAACCGGGAA | 1.1 ± 0.021
CAACCTGCGA | 1.4175 ± 0.0011
CAACGCATTT | 2.36 ± 0.44
CAACGGGCCA | 1.01 ± 0.029
CAACGGGGGG | 0.998 ± 0.029
CAACGTATTT | 1.113 ± 0.002
CAACTAAGTT | 0.988 ± 0.036
CAACTAGTGG | 0.978 ± 0.037
CAACTTGGGA | 1.05 ± 0.015
CAAGAACGTT | 0.997 ± 0.018
CAAGAATGCG | 1 ± 0.034
CAAGAATTTG | 0.9816 ± 0.0097
